{"source": "patent US20220098307A1", "about": "(WUHAN YZY BIOPHARMA, published 2022)"}
{"biological_target": "T1, Monkey CD3 (monkey)", "T1 construct": "whole, on cells; also called CD3 of monkey CD3 positive T cells", "test": "flow cytometry, monkey T cells", "units": {"EC50": "nM"}}
{"binder": "M1IC-G2 (bispecific antibody, structure 1 isotype control; CH2 G2CH2) not shown heavy: EVKLDETGGGLVQPGRPMKLSCVASGFTFSDYWMNWVRQSPEKGLEWVAQIRNKPYNYETYYSDSVKGRFTISRDDSKSSVYLQMNNLRVEDMGIYYCTGSYYGMDYWGQGTSVTVSSASTKGPSVFPLAPSSKSTSGGTAALGCLVKDYFPEPVTVSWNSGALTSGVHTFPAVLQSSGLYSLSSVVTVPSSSLGTQTYICNVNHKPSNTKVDKKVEPKSCDKTHTCPPCPAPPVAGPSVFLFPPKPKDTLMISRTPEVTCVVVDVSHEDPEVQFNWYVDGVEVHNAKTKPREEQFNSTFRVVSVLTVVHQDWLNGKEYKCKVSNKGLPAPIEKTISKTKGQPREPQVYTLPPCRDELTKNQVSLWCLVKGFYPSDIAVEWESNGQPENNYKTTPPVLDSDGSFFLYSKLTVDKSRWQQGNVFSCSVMHEALHNHYTQKSLSLSPGK light: DVVMTQTPLSLPVSLGDQASISCRSSQSLVHSNGNTYLRWYLQKPGQSPKVLIYKVSNRFSGVPDRFSGSGSGTDFTLKISRVEAEDLGVYFCSQSTHVPWTFGGGTKLEIKRTVAAPSVFIFPPSDEQLKSGTASVVCLLNNFYPREAKVQWKVDNALQSGNSQESVTEQDSKDSTYSLSSTLTLSKADYEKHKVYACEVTHQGLSSPVTKSFNRGEC", "EC50": 10.4}
{"binder": "M1IC-AG2 (bispecific antibody, structure 1 isotype control; CH2 AG2CH2) not shown heavy: EVKLDETGGGLVQPGRPMKLSCVASGFTFSDYWMNWVRQSPEKGLEWVAQIRNKPYNYETYYSDSVKGRFTISRDDSKSSVYLQMNNLRVEDMGIYYCTGSYYGMDYWGQGTSVTVSSASTKGPSVFPLAPSSKSTSGGTAALGCLVKDYFPEPVTVSWNSGALTSGVHTFPAVLQSSGLYSLSSVVTVPSSSLGTQTYICNVNHKPSNTKVDKKVEPKSCDKTHTCPPAPAPPVAGPSVFLFPPKPKDTLMISRTPEVTCVVVDVSHEDPEVQFNWYVDGVEVHNAKTKPREEQFNSTFRVVSVLTVVHQDWLNGKEYKCKVSNKGLPAPIEKTISKTKGQPREPQVYTLPPCRDELTKNQVSLWCLVKGFYPSDIAVEWESNGQPENNYKTTPPVLDSDGSFFLYSKLTVDKSRWQQGNVFSCSVMHEALHNHYTQKSLSLSPGK light: DVVMTQTPLSLPVSLGDQASISCRSSQSLVHSNGNTYLRWYLQKPGQSPKVLIYKVSNRFSGVPDRFSGSGSGTDFTLKISRVEAEDLGVYFCSQSTHVPWTFGGGTKLEIKRTVAAPSVFIFPPSDEQLKSGTASVVCLLNNFYPREAKVQWKVDNALQSGNSQESVTEQDSKDSTYSLSSTLTLSKADYEKHKVYACEVTHQGLSSPVTKSFNRGEC", "EC50": 14.2}
{"binder": "M1IC-DG2 (bispecific antibody, structure 1 isotype control; CH2 DG2CH2) not shown heavy: EVKLDETGGGLVQPGRPMKLSCVASGFTFSDYWMNWVRQSPEKGLEWVAQIRNKPYNYETYYSDSVKGRFTISRDDSKSSVYLQMNNLRVEDMGIYYCTGSYYGMDYWGQGTSVTVSSASTKGPSVFPLAPSSKSTSGGTAALGCLVKDYFPEPVTVSWNSGALTSGVHTFPAVLQSSGLYSLSSVVTVPSSSLGTQTYICNVNHKPSNTKVDKKVEPKSCDKTHTCPPCPAPPVAGPSVFLFPPKPKDTLMISRTPEVTCVVVAVSHEDPEVQFNWYVDGVEVHNAKTKPREEQFNSTFRVVSVLTVVHQDWLNGKEYKCKVSNKGLPAPIEKTISKTKGQPREPQVYTLPPCRDELTKNQVSLWCLVKGFYPSDIAVEWESNGQPENNYKTTPPVLDSDGSFFLYSKLTVDKSRWQQGNVFSCSVMHEALHNHYTQKSLSLSPGK light: DVVMTQTPLSLPVSLGDQASISCRSSQSLVHSNGNTYLRWYLQKPGQSPKVLIYKVSNRFSGVPDRFSGSGSGTDFTLKISRVEAEDLGVYFCSQSTHVPWTFGGGTKLEIKRTVAAPSVFIFPPSDEQLKSGTASVVCLLNNFYPREAKVQWKVDNALQSGNSQESVTEQDSKDSTYSLSSTLTLSKADYEKHKVYACEVTHQGLSSPVTKSFNRGEC", "EC50": 14.5}
{"binder": "M1IC-DG2D (bispecific antibody, structure 1 isotype control; CH2 DG2DCH2; also called MlIC-DG2D) not shown heavy: EVKLDETGGGLVQPGRPMKLSCVASGFTFSDYWMNWVRQSPEKGLEWVAQIRNKPYNYETYYSDSVKGRFTISRDDSKSSVYLQMNNLRVEDMGIYYCTGSYYGMDYWGQGTSVTVSSASTKGPSVFPLAPSSKSTSGGTAALGCLVKDYFPEPVTVSWNSGALTSGVHTFPAVLQSSGLYSLSSVVTVPSSSLGTQTYICNVNHKPSNTKVDKKVEPKSCDKTHTCPPCPAPPVAGPSVFLFPPKPKDTLMISRTPEVTCVVVAVSHEAPEVQFNWYVDGVEVHNAKTKPREEQFNSTFRVVSVLTVVHQDWLNGKEYKCKVSNKGLPAPIEKTISKTKGQPREPQVYTLPPCRDELTKNQVSLWCLVKGFYPSDIAVEWESNGQPENNYKTTPPVLDSDGSFFLYSKLTVDKSRWQQGNVFSCSVMHEALHNHYTQKSLSLSPGK light: DVVMTQTPLSLPVSLGDQASISCRSSQSLVHSNGNTYLRWYLQKPGQSPKVLIYKVSNRFSGVPDRFSGSGSGTDFTLKISRVEAEDLGVYFCSQSTHVPWTFGGGTKLEIKRTVAAPSVFIFPPSDEQLKSGTASVVCLLNNFYPREAKVQWKVDNALQSGNSQESVTEQDSKDSTYSLSSTLTLSKADYEKHKVYACEVTHQGLSSPVTKSFNRGEC", "EC50": 16}
{"binder": "M1IC-G2D (bispecific antibody, structure 1 isotype control; CH2 G2DCH2) not shown heavy: EVKLDETGGGLVQPGRPMKLSCVASGFTFSDYWMNWVRQSPEKGLEWVAQIRNKPYNYETYYSDSVKGRFTISRDDSKSSVYLQMNNLRVEDMGIYYCTGSYYGMDYWGQGTSVTVSSASTKGPSVFPLAPSSKSTSGGTAALGCLVKDYFPEPVTVSWNSGALTSGVHTFPAVLQSSGLYSLSSVVTVPSSSLGTQTYICNVNHKPSNTKVDKKVEPKSCDKTHTCPPCPAPPVAGPSVFLFPPKPKDTLMISRTPEVTCVVVDVSHEAPEVQFNWYVDGVEVHNAKTKPREEQFNSTFRVVSVLTVVHQDWLNGKEYKCKVSNKGLPAPIEKTISKTKGQPREPQVYTLPPCRDELTKNQVSLWCLVKGFYPSDIAVEWESNGQPENNYKTTPPVLDSDGSFFLYSKLTVDKSRWQQGNVFSCSVMHEALHNHYTQKSLSLSPGK light: DVVMTQTPLSLPVSLGDQASISCRSSQSLVHSNGNTYLRWYLQKPGQSPKVLIYKVSNRFSGVPDRFSGSGSGTDFTLKISRVEAEDLGVYFCSQSTHVPWTFGGGTKLEIKRTVAAPSVFIFPPSDEQLKSGTASVVCLLNNFYPREAKVQWKVDNALQSGNSQESVTEQDSKDSTYSLSSTLTLSKADYEKHKVYACEVTHQGLSSPVTKSFNRGEC", "EC50": 10.6}
{"binder": "M1IC-GG2 (bispecific antibody, structure 1 isotype control; CH2 GG2CH2) not shown heavy: EVKLDETGGGLVQPGRPMKLSCVASGFTFSDYWMNWVRQSPEKGLEWVAQIRNKPYNYETYYSDSVKGRFTISRDDSKSSVYLQMNNLRVEDMGIYYCTGSYYGMDYWGQGTSVTVSSASTKGPSVFPLAPSSKSTSGGTAALGCLVKDYFPEPVTVSWNSGALTSGVHTFPAVLQSSGLYSLSSVVTVPSSSLGTQTYICNVNHKPSNTKVDKKVEPKSCDKTHTCPPGPAPPVAGPSVFLFPPKPKDTLMISRTPEVTCVVVDVSHEDPEVQFNWYVDGVEVHNAKTKPREEQFNSTFRVVSVLTVVHQDWLNGKEYKCKVSNKGLPAPIEKTISKTKGQPREPQVYTLPPCRDELTKNQVSLWCLVKGFYPSDIAVEWESNGQPENNYKTTPPVLDSDGSFFLYSKLTVDKSRWQQGNVFSCSVMHEALHNHYTQKSLSLSPGK light: DVVMTQTPLSLPVSLGDQASISCRSSQSLVHSNGNTYLRWYLQKPGQSPKVLIYKVSNRFSGVPDRFSGSGSGTDFTLKISRVEAEDLGVYFCSQSTHVPWTFGGGTKLEIKRTVAAPSVFIFPPSDEQLKSGTASVVCLLNNFYPREAKVQWKVDNALQSGNSQESVTEQDSKDSTYSLSSTLTLSKADYEKHKVYACEVTHQGLSSPVTKSFNRGEC", "EC50": 13}
{"binder": "M1IC-PG2 (bispecific antibody, structure 1 isotype control; CH2 PG2CH2) not shown heavy: EVKLDETGGGLVQPGRPMKLSCVASGFTFSDYWMNWVRQSPEKGLEWVAQIRNKPYNYETYYSDSVKGRFTISRDDSKSSVYLQMNNLRVEDMGIYYCTGSYYGMDYWGQGTSVTVSSASTKGPSVFPLAPSSKSTSGGTAALGCLVKDYFPEPVTVSWNSGALTSGVHTFPAVLQSSGLYSLSSVVTVPSSSLGTQTYICNVNHKPSNTKVDKKVEPKSCDKTHTCPPPPAPPVAGPSVFLFPPKPKDTLMISRTPEVTCVVVDVSHEDPEVQFNWYVDGVEVHNAKTKPREEQFNSTFRVVSVLTVVHQDWLNGKEYKCKVSNKGLPAPIEKTISKTKGQPREPQVYTLPPCRDELTKNQVSLWCLVKGFYPSDIAVEWESNGQPENNYKTTPPVLDSDGSFFLYSKLTVDKSRWQQGNVFSCSVMHEALHNHYTQKSLSLSPGK light: DVVMTQTPLSLPVSLGDQASISCRSSQSLVHSNGNTYLRWYLQKPGQSPKVLIYKVSNRFSGVPDRFSGSGSGTDFTLKISRVEAEDLGVYFCSQSTHVPWTFGGGTKLEIKRTVAAPSVFIFPPSDEQLKSGTASVVCLLNNFYPREAKVQWKVDNALQSGNSQESVTEQDSKDSTYSLSSTLTLSKADYEKHKVYACEVTHQGLSSPVTKSFNRGEC", "EC50": 17.8}
{"binder": "M1IC-SG2 (bispecific antibody, structure 1 isotype control; CH2 SG2CH2) not shown heavy: EVKLDETGGGLVQPGRPMKLSCVASGFTFSDYWMNWVRQSPEKGLEWVAQIRNKPYNYETYYSDSVKGRFTISRDDSKSSVYLQMNNLRVEDMGIYYCTGSYYGMDYWGQGTSVTVSSASTKGPSVFPLAPSSKSTSGGTAALGCLVKDYFPEPVTVSWNSGALTSGVHTFPAVLQSSGLYSLSSVVTVPSSSLGTQTYICNVNHKPSNTKVDKKVEPKSCDKTHTCPPSPAPPVAGPSVFLFPPKPKDTLMISRTPEVTCVVVDVSHEDPEVQFNWYVDGVEVHNAKTKPREEQFNSTFRVVSVLTVVHQDWLNGKEYKCKVSNKGLPAPIEKTISKTKGQPREPQVYTLPPCRDELTKNQVSLWCLVKGFYPSDIAVEWESNGQPENNYKTTPPVLDSDGSFFLYSKLTVDKSRWQQGNVFSCSVMHEALHNHYTQKSLSLSPGK light: DVVMTQTPLSLPVSLGDQASISCRSSQSLVHSNGNTYLRWYLQKPGQSPKVLIYKVSNRFSGVPDRFSGSGSGTDFTLKISRVEAEDLGVYFCSQSTHVPWTFGGGTKLEIKRTVAAPSVFIFPPSDEQLKSGTASVVCLLNNFYPREAKVQWKVDNALQSGNSQESVTEQDSKDSTYSLSSTLTLSKADYEKHKVYACEVTHQGLSSPVTKSFNRGEC", "EC50": 13.2}
{"binder": "M1IC-WT (bispecific antibody, structure 1 isotype control; CH2 WT; also called MlIC-WT) not shown heavy: not shown light: DVVMTQTPLSLPVSLGDQASISCRSSQSLVHSNGNTYLRWYLQKPGQSPKVLIYKVSNRFSGVPDRFSGSGSGTDFTLKISRVEAEDLGVYFCSQSTHVPWTFGGGTKLEIKRTVAAPSVFIFPPSDEQLKSGTASVVCLLNNFYPREAKVQWKVDNALQSGNSQESVTEQDSKDSTYSLSSTLTLSKADYEKHKVYACEVTHQGLSSPVTKSFNRGEC", "EC50": 19.8}
{"binder": "M1IC-AAG (bispecific antibody, structure 1 isotype control; CH2 AAG) not shown heavy: not shown light: DVVMTQTPLSLPVSLGDQASISCRSSQSLVHSNGNTYLRWYLQKPGQSPKVLIYKVSNRFSGVPDRFSGSGSGTDFTLKISRVEAEDLGVYFCSQSTHVPWTFGGGTKLEIKRTVAAPSVFIFPPSDEQLKSGTASVVCLLNNFYPREAKVQWKVDNALQSGNSQESVTEQDSKDSTYSLSSTLTLSKADYEKHKVYACEVTHQGLSSPVTKSFNRGEC", "EC50": 8.79}
